{
  "source": "paper PMC4624332",
  "about": "(Cell, 2015)",
  "molecules": {"B1": {"name": "EagT6, recombinant, in the purified Tse6 complex (natural protein)", "chain": "MTLYRLHEADLEIPDAWQDQSINIFKLPASGPAREASFVISRDASQGDAPFADYVARQLENAEKQLPGFKLHKRWDINIHGHAAVLLDYQWQREGRDLMLRQVFIERRPAVLITTLTTTPADLPHHEPAWKQAMQTLVPRPTPS"}, "B2": {"name": "Tse6_(265-CT) (domain or fragment)", "chain": "QRRAYLNNKFGRSGNLDHDINYRGNRETAAKFFKSKDIDPADAESYMNGLDFNHPVRVETLAPGKNLWQYQSPGAPQGNWYTLSPRVQPTELGINPMGTNRAANTIEPKVLNSYRTTQKVEVLRSTAAPTDDFWSVKGQSYPAKGGAQQLFSNEKGSFGLLPREGS"}},
  "key": {"[1]": {"biological_target": "Tse6_(265-CT) (P. aeruginosa) (UniProt Q9I739)", "test": "ITC"}, "[2]": {"biological_target": "C-terminally octa-histidine-tagged Tse6 (full-length toxin) (P. aeruginosa, UniProt Q9I739 1-430)", "test": "negative-stain electron microscopy"}, "[3]": {"biological_target": "EF-Tu^EC•GDP (E. coli EF-Tu, GDP-bound), purified for ITC (E. coli, UniProt P0CE47 2-393)", "sequence (P0CE47 2-393)": "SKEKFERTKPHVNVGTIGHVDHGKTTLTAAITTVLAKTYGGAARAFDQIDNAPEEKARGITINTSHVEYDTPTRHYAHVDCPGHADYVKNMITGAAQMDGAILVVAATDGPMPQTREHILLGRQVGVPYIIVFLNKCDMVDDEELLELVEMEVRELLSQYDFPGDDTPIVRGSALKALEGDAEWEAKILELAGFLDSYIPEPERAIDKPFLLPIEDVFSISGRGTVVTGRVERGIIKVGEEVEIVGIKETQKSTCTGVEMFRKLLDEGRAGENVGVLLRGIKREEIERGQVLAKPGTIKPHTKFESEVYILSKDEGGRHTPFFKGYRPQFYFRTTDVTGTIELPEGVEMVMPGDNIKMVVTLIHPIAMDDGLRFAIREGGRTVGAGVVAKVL", "test": "ITC"}, "[4]": {"biological_target": "EF-Tu^PA•GDP (P. aeruginosa EF-Tu, GDP-bound), purified (P. aeruginosa, UniProt P09591 1-397)", "sequence (P09591 whole entry)": "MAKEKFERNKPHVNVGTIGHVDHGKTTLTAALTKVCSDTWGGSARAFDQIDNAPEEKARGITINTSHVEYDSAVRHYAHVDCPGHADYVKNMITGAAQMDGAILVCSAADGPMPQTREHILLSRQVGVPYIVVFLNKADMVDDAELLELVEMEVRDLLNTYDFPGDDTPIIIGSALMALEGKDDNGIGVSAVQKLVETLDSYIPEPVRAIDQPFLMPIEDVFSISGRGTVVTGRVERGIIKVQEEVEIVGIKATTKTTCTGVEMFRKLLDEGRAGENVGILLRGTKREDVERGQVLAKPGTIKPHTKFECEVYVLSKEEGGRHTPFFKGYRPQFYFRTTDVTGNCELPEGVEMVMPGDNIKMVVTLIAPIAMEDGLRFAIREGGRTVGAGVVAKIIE", "test": "ITC"}},
  "data": [
    {"molecule": "EF-Tu with the antibiotic Aurodox (locked into its GTP-bound conformation) (from UniProt P09591 1-397) (natural protein)", "values": [
      {"measurement": "fold reduction of the affinity with Aurodox against EF-Tu•GDP", "setting": "[1]", "result": 10, "unit": "fold"}
    ]},
    {"molecule": "B1", "values": [
      {"measurement": "binding result", "setting": "[2]", "result": "binds"}
    ]},
    {"molecule": "B2", "values": [
      {"measurement": "Kd", "setting": "[3]", "result": 0.081, "unit": "µM"},
      {"measurement": "Kd", "setting": "[4]", "result": 0.023, "unit": "µM"}
    ]}
  ]
}
